In one assay the test system is TNF-α. The assay can be described thus: Serum TNF-α, CLP mice, ELISA. It counts as in vivo, mouse. The following applies: DLL4^+ neutrophil-injected CLP mice, 10 mg/kg, 20 h. The method, then:
Sepsis was induced in mice by cecal ligation and puncture (CLP) as described previously ([45], [46]). Mice were anesthetized with isoflurane to a surgical plane and placed in a supine position. CLP was performed through a midline laparotomy. The abdomen was shaved and disinfected. Through a 2 cm midline incision, the cecum was exposed and then ligated with a 4-0 silk suture 1 cm proximal from the distal cecal extremity. For 20-hour CLP experiments, the cecum was punctured twice with a 22-gauge needle. A small amount of cecal content was extruded through both holes, and the ligated cecum was returned to the peritoneal cavity. The wound was closed in layers. For 10-day sepsis survival studies, the cecum was punctured once with a 22-gauge needle. A small amount of cecal content was extruded. Mice were allocated to the vehicle and adoptive transfer of DLL4^+ neutrophils or DLL4^– neutrophils groups. […]
Blood was collected by heart puncture and centrifuged at 1,500g and 4°C for 10 minutes, and the plasma was separated to assess cytokine levels using enzyme-linked immunosorbent assay (ELISA) kits (BD Biosciences). The plasma TNF-α (catalog 558534) and IL-6 (catalog 555240) levels were measured by ELISA.

For assay [1], the system named is DLL4 expression on WT BMDNs. Kind of assay: Frequency of DLL4^+ neutrophils (Ly6G^+DLL4^+), WT mouse BMDNs, flow cytometry. Format: cell-based. The following applies: for percentage of DLL4^+ neutrophils (Figure 1C): eCIRP 1 μg/mL, WT BMDNs 1 × 10^6/mL. The source says:
Mice were anesthetized by 2% isoflurane inhalation, and the femora and tibiae were dissected. The bone marrow was flushed out with calcium- and magnesium-free HBSS using a 25-gauge needle into a Petri dish. Suspensions of cells were filtered through a 70 μm cell strainer (Corning), and bone marrow–derived neutrophils (BMDNs) were purified by negative selection using the EasySep mouse neutrophil enrichment kit (catalog 19762, STEMCELL Technologies). The purity of the sorted neutrophils was assessed by staining of the cells with APC-Ly6G antibody (clone 1A8, BioLegend) using a BD LSRFortessa flow cytometer (BD Biosciences).
In the time course experiments, BMDNs (1 × 10^6) were stimulated with eCIRP (1 μg/mL) for 2, 4, 6, and 12 hours. In the dose-response experiments, BMDNs (1 × 10^6) were treated with 0, 0.2, 0.5, or 1.0 μg/mL eCIRP for 12 hours. Single-cell suspensions were then stained with APC-conjugated anti–mouse Ly6G (clone 1A8, catalog 127614, BioLegend) and PE-conjugated anti-DLL4 (clone HMD4-1, catalog 130807, BioLegend), and analyzed by flow cytometry (BD LSRFortessa, BD Biosciences) to detect DLL4^+ neutrophils (Ly6G^+DLL4^+). Unstained cells were used to set voltages, and single-color controls were applied for compensation adjustment. Two hundred fifty microliters of whole blood obtained from sham, CLP, and PBS- or NDI-treated mice was taken into Falcon 15 mL conical tubes, and 5 mL red blood cell (RBC) lysis buffer (BD Biosciences) was added. After 1–2 minutes of incubation at room temperature, the samples were centrifuged at 300g for 10 minutes. Supernatants were aspirated, and the cell pellet was washed by suspension of the cells in 5 mL fluorescence-activated cell sorting (FACS) buffer containing 2% fetal bovine serum and centrifuged at 300g for 10 minutes. The supernatant was discarded, and the cell pellet was dissolved in […] FACS buffer. Lung tissues were finely diced using a sterile surgical blade and suspended in Ca^++- and Mg^++-free Hanks balanced salt solution (HBSS; Corning). Tissue digestion was performed in HBSS containing 100 U/mL of collagenase I (Worthington Biochemical) and 20 U/mL DNase I (Worthington Biochemical) at 37°C for 30 minutes with periodic shaking. Digested tissue fragments were crushed with a 10 mL syringe plunger and passed through a 70 μm cell strainer (Corning). Lysis of RBCs in lung cell suspensions was conducted using RBC lysis buffer (BD Biosciences). The isolated lung cells were counted using a microscope (Eclipse TS100, Nikon). To detect mouse DLL4^+ neutrophils, single-cell suspensions were stained with anti-mouse APC-Ly6G (clone 1A8, catalog 127614, BioLegend) and PE-DLL4 (clone HMD4-1, catalog 130807, BioLegend) and assessed for the detection of DLL4^+ neutrophils (Ly6G^+DLL4^+) by flow cytometry (BD LSRFortessa, BD Biosciences). Unstained cells were used to establish the flow cytometer voltage setting, and single-color positive controls were used to adjust the compensation. The acquisition was performed on 50,000 events using a BD LSRFortessa flow cytometer (BD Biosciences), and data were analyzed with FlowJo software (Tree Star). BMDNs were stimulated with eCIRP ([…]) for 2 hours. This time point was selected to maximize the viability and functionality of DLL4^+ neutrophils for downstream experiments, given their relatively short lifespan. After stimulation, cells were washed with PBS and resuspended in 1 mL FACS buffer, and DLL4^+ neutrophils (Ly6G^+DLL4^+) and DLL4^– neutrophils (Ly6G^+DLL4^–) were sorted by flow cytometry using a BD FACSAria IIu cell sorter (BD Biosciences).

Several values for one entry are separate records, joined by “and”; a condition that tells them apart may be missing. Equal entries are not always repeated.

The values below come from paper PMC12700550, “DLL4^+ neutrophils promote Notch1-mediated endothelial PANoptosis to exacerbate acute lung injury in sepsis” (The Journal of Clinical Investigation, 2025).

For the molecule ECAGSPCHNGGTCEDGI [NDI], the “effect on serum TNF-α” value in the assay with TNF-α was “significantly reduced the serum levels of hepatic and cell injury markers and proinflammatory cytokines”.

B1: eCIRP: extracellular cold-inducible RNA-binding protein; recombinant murine, produced in our laboratory (protein, UniProt P60824 1-172, looked up)
Cold-inducible RNA-binding …: MASDEGKLFVGGLSFDTNEQALEQVFSKYGQISEVVVVKDRETQRSRGFGFVTFENIDDAKDAMMAMNGKSVDGRQIRVDQAGKSSDNRSRGYRGGSAGGRGFFRGGRSRGRGFSRGGGDRGYGGGRFESRSGGYGGSRDYYASRSQGGSYGYRSSGGSYRDSYDSYATHNE
On to B1, for which the “percentage of DLL4^+ neutrophils (Figure 1D)” value was 6.79% and 7.39% and 5.07% and 2.01% and 1.58% and 2.94% in assay [1] (0.2 μg/mL rmCIRP, 12 h, WT BMDNs, individual replicates); 9.65% and 8% and 2.23% and 3.04% and 4.63% and 3.6% in assay [1] (0.5 μg/mL rmCIRP, 12 h, WT BMDNs, individual replicates); 9.46% and 10.2% and 10.3% and 9.59% and 14.64% and 11.2% and 19.6% in assay [1] (1 μg/mL rmCIRP, 12 h, WT BMDNs, individual replicates). In addition, the “increase in DLL4^+ neutrophils compared with baseline” value in assay [1] (1 μg/mL eCIRP, 12 hours) is “greater than 10 fold”. Moreover, the “frequency of DLL4^+ neutrophils (Figure 1E)” value in assay [1] (WT BMDNs, 1 μg/mL eCIRP, 12 h, individual replicates) was 10.6% and 7.8% and 13.4% and 4.22% and 4.99%. Further, the “percentage of DLL4^+ neutrophils (Figure 1C)” value in assay [1] (2 h, individual replicates) was 2.37% and 2.69% and 2.61% and 1.38% and 2.29% and 2.02%; in assay [1] (4 h, individual replicates), 2.2% and 3.33% and 2.32% and 3.85% and 1.73% and 1.34%; in assay [1] (6 h, individual replicates) it was 5.6% and 3.69% and 4.86% and 3.28% and 2.75% and 2.78%; in assay [1] (12 h, individual replicates), 25.8% and 23.2% and 5.76% and 10.3% and 13.1% and 19.7%. Besides, the “effect on frequency of DLL4^+ neutrophils” value in assay [1] (mouse BMDNs) is “significantly increased the frequency (percentage) of DLL4^+ neutrophils in a time- and dose-dependent manner”.
